Publication PMC9468648, “Profiling of transcriptional regulators associated with starch biosynthesis in sorghum (Sorghum bicolor L.)”

Experiments:
Test in all cases: EMSA; Chemiluminescent EMSA Kit (Beyotime) per manufacturer's instructions; buffer, salt, pH and temperature not stated
Conditions in all cases: protein: recombinant; tags: His (pET32a fusion); chain copies: 2; label: 5' biotin; blunt
[1] = biological target: T1, SORBI_3005G056300 (NAC TF) (UniProt C5Y5Q6 1-283)
T1 sequence: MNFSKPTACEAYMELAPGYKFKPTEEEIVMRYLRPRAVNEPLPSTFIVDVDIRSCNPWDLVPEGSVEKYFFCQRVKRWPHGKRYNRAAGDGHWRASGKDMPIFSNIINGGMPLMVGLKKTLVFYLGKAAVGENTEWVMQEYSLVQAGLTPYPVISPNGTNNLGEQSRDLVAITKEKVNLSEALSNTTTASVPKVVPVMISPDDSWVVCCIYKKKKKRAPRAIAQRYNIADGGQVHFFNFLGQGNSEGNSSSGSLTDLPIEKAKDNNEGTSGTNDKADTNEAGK

[2] = biological target: T2, SORBI_3003G105600 (NAC TF) (UniProt C5XF21 1-400)
T2 sequence: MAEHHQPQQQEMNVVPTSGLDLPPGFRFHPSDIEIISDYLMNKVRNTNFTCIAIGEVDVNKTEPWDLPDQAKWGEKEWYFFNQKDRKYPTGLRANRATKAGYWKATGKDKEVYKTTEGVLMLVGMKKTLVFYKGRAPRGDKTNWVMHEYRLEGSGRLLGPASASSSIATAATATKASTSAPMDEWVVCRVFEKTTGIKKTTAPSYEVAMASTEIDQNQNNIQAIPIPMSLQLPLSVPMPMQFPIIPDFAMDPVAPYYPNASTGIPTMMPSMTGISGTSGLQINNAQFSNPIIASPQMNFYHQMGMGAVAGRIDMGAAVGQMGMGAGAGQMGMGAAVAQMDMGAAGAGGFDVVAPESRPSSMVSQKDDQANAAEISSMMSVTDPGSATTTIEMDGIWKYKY

[3] = biological target: T3, SORBI_3009G086800 (NAC TF) (UniProt C5YV73 1-402)
T3 sequence: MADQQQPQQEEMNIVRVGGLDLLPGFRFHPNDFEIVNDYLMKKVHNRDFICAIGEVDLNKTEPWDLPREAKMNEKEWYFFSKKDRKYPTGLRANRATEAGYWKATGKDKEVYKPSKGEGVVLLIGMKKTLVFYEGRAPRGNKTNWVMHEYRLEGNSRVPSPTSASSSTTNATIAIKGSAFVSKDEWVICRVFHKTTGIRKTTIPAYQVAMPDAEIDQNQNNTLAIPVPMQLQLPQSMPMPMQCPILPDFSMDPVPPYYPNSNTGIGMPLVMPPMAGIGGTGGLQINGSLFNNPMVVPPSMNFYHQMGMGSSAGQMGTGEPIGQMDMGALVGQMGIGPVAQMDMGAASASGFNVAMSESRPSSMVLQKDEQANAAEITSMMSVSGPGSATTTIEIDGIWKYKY

Measured: binding result

B1: 4x CACGCAA repeat probe (dsDNA)
DNA 1: TCACGCAACACGCAACACGCAACACGCAAG
DNA 2: CTTGCGTGTTGCGTGTTGCGTGTTGCGTGA
binds: all assays above
